US7176188B2, “Method of lethally sensitizing human and animal cells” (UniversitéLaval, priority 2003, dated 2007)

B1: His-PME-3L: His-tagged recombinant C. elegans PARG PME-3L (SEQ ID NO:9) expressed in bacteria from pQE-PME-3L (protein)
chain: MSKKFIELGDPVTQDEKDYEDYVGVGFAHQVPTMKRRKLTEHGNTTESKEDPEEPKSRDVFVSSQSSDESQEDSAENPEIAKEVSENCENLTETLKISNIESLDNVTERSEHTLDNHKSTEPMEEDVNNKSNIDVAINSDEDDELVLEENNKEMRDGEQVQQDLFADDQELIEYPGIMKDTTTQLDITDSEVETAQKMEMIEETEADSTFVGEDSKNQRQSGTTSDEVDADSQINLATKTVRTSSSSFLSTVSTCEAPAKGRARMYQKELEKHVIAFTEGNLTLQPDLNKVDPDRNYRYCTIPNFPASQGKLREDNRYGPKIVLPQRWREFDSRGRRRDSYFYFKRKLDGYLKCYKTTGYFMFVGLLHNMWEFDPDITYKLPALEMYYKEMSELVGREEVLEKFARVARIAKTAEDILPERIYRLVGDVESATLSHKQCAALVARMFFARPDSPFSFCRILSSDKSICVEKLKFLFTYFDKMSMDPPDGAVSFRLTKMDKDTFNEEWKDKKLRSLPEVEFFDEMLIEDTALCTQVDFANEHLGGGVLNHGSVQEEIRFLMCPEMMVGMLLCEKMKQLEAISIVGAYVFSSYTGYGHTLKWAELQPNHSRQNTNEFRDRFGRLRVETIAIDAILFKGSKLDCQTEQLNKANIIREMKKASIGFMSQGPKFTNIPIVTGWWGCGAFNGDKPLKFIIQVIAAGVADRPLHFCSFGEPELAAKCKKIIERMKQKDVTLGMLFSMINNTGLPHKHFEFYVFDRISTYLSSSEDVESSKSSPSVSRA
modifications: His tag; PEPTIDE (1)...(781) PME-3L
B2: His-PME-4: His-tagged recombinant C. elegans PARG PME-4 (SEQ ID NO:11) expressed in bacteria from pET23a-PME-4 (protein)
chain: MDHENLMKYLEEFRSIRFQPDFQKVDAERNVRYCEITDFPISNISFELLETGVSQQWRNCDQNLFNEYLKTYKNGGYSQFEDLLFKIWGYSEEKERFDLPALKSFYRKMSEIVGEDEVLEKLARLVRITKSACEVLPEKIYRLVGDIESATFSHIQCASLIAWMFFSDTPRLSFIIILQKTTCVAVEKLKFLFTYFDKMSIDPPIGAVSFRKMRITHKQYLENWKLRETNLLPDVQVFDKMSIEETALCTQIDFANKRLGGGVLKGGAVQEEIRFMMCPEMMVAILLNDVTQDLEAISIVGAYVFSSYTGYSNTLKWAKITPKHSAQNNNSFRDQFGRLQTETVAIDAVRNAGTPLECLLNQLTTEKLTREVRKAAIGFLSAGDGFSKIPVVSGWWGCGAFRGNKPLKFLIQVIACGISDRPLQFCTFGDTELAKKCEEMMTLFRNNNVRTGQLFLIINSIGPPLNYSEQYVFDAIRAKINSTKA
modifications: His tag; PEPTIDE (1)...(485) PME-4

Assay: PARG activity of bacterial extracts expressing recombinant protein (TLC release of 32P-ADP-ribose from 32P-poly(ADP-ribose))
Type: biochemical, C. elegans
Conditions: for PARG activity (qualitative): bacterially expressed His-tagged protein, 24 h at 37° C.
Method: Cultures of M15-pREP4 bacteria transformed with pQE-PME-3L, were grown overnight at saturation at 37° C. Fresh cultures (1000 ml) were started with 50-mL overnight cultures and grown at 37° C. at OD600 nm 0.600. Cultures were then induced with 1 mM isopropyl-1-thio-β-d-galactopyranoside (IPTG) at 37° C. for 2.5 h. M15-pREP4 bacteria transformed with vector alone were also treated with 1 mM IPTG at 37° C. for 2.5 h. Cultures were pelleted at 3000×g for 10 min at 4° C., resuspended in 10 ml extraction buffer (50 mM KPO4, pH 7.5, 50 mM Kcl, 10 mM β-mercaptoethanol, 0.1% triton X-100) and passed twice at 16,000 psi in a French Pressure Cell (SLM-AMINCO®, Rochester, N.Y.) maintained at 4° C. Extracts were centrifuged for 10 min at 1000×g at 4° C. and protein concentration of supernatants were determined. Each supernatant (23.7 mg/ml for M15+pQE-30 and 22.2 mg/ml for pQE-PME-3L) were analyzed on SDS-PAGE and assayed for PARG activity.
PARG activity was determined according to Ménard et al (1987, Biochem. Cel Biol. 65: 668–673). Ten μl of worm or bacterial extracts were assayed for 24 h at 37° C. in the presence of ^32P-poly(ADP-ribose) followed by a thin layer chromatography. Radiolabeled ADP-ribose units released from ADP-ribose polymers were quantified directly on the TLC using an Instant Imager Electronic Autoradiography device (Canberra-Packard). One unit of PARG is defined as the amount of enzyme required to liberate 1 nmol of ADP-ribose per min at 37° C. under assay conditions (Menard and Poirier, 1987, Biochem. Cell Biol. 65: 668–673). Radiographic X-OMAT film was exposed to the TLC plate and placed at −80° C. for 24 h.

Molecule | PARG activity compared to His-PME-4 (bacterial extracts, similar rate of bacterial expression) [times] | PARG activity (qualitative)
B1 | ~10 | display PARG activity
B2 |  | display PARG activity
